What was measured:
[1] = molecular target: recombinant human activated protein C (5 nM), Novo Nordisk A/S (human) (UniProt P04070)
[2] = molecular target: human Factor XIa (1 nM) (human) (UniProt P03951)
[3] = molecular target: recombinant human Factor VIIa (300 nM), Novo Nordisk A/S (human) (UniProt P08709)
[4] = molecular target: T1, Cathepsin G, purified at Novo Nordisk A/S using the method of Baugh and Travis
T1 sequence (P08311 21-244, species assumed, looked up): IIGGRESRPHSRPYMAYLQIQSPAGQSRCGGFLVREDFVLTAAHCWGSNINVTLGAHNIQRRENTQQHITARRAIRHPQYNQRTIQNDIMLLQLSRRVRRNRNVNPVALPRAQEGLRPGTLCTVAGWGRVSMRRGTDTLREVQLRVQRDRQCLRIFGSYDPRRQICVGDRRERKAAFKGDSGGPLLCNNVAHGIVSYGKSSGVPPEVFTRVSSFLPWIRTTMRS

[5] = molecular target: Trypsin (8 nM), Novo Nordisk A/S, Bagsvaerd, Denmark
[6] = molecular target: human Factor Xa (3 nM) (human) (UniProt P00742)
[7] = molecular target: Leukocyte Elastase, purified at Novo Nordisk A/S using the method of Baugh and Travis
[8] = molecular target: human Factor XIIa (30 nM) (human) (UniProt P00748)
[9] = molecular target: glandular kallikrein (1 U/ml), Sigma, St Louis, MO
[10] = molecular target: plasma kallikrein (3 nM), Kabi
[11] = molecular target: Chymotrypsin (2.5 nM), Novo Nordisk A/S
[12] = molecular target: Urokinase (5 nM), Serono, Freigung, Germany

% Inhibition [1]: 0%
% Inhibition [2]: 99.8%
% Inhibition [3]: 15%
% Inhibition [4]: 0%
% Inhibition [5]: 99.6%
% Inhibition [6]: 0%
% Inhibition [7]: 4%
% Inhibition [8]: 6%
% Inhibition [9]: 97%
% Inhibition [10]: 69%
% Inhibition [11]: 61%
% Inhibition [12]: 2%
% Inhibition (Plasmin (10 nM), Kabi): 77%
Substance: APPH Kunitz-type inhibitor domain as tested in Table 3

From patent US5677146
